The record followed here is article PMC10843171.

One experiment addresses human FcRn (human) (UniProt P55899). Description: not stated.
The target of experiment [1] is cyno FcRn (cynomolgus monkey) (UniProt Q8SPV9). Description: not stated.
In experiment [2] the target is PF-07209960, anti-human PD-1–IL15 mutein fusion protein (human). The experiment can be described thus: SPR; Biacore T200; fusion protein captured via anti-human Fc on a CM4 chip, receptor injected as analyte; 37°C; 10 mM HEPES, 150 mM NaCl, 0.05% Tween-20, pH 7.4, 1 mg/mL BSA; steady-state 1:1 Langmuir fit. A general note: Surface plasmon resonance follows binding to a sensor surface in real time, without labels.

Chain of UniProt P55899 (P55899 whole entry, looked up, tested part not stated): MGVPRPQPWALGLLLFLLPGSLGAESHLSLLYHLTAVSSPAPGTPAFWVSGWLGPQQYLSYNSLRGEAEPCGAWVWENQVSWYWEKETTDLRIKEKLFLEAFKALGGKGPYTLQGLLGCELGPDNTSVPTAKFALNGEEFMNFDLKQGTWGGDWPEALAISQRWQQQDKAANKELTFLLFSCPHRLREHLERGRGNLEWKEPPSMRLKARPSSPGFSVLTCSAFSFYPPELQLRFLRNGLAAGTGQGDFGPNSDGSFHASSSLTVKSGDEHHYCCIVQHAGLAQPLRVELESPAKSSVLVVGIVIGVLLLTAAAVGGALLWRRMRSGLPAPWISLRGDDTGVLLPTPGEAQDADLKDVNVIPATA
Chain of UniProt Q8SPV9 (Q8SPV9 whole entry, looked up, the tested form may be a part): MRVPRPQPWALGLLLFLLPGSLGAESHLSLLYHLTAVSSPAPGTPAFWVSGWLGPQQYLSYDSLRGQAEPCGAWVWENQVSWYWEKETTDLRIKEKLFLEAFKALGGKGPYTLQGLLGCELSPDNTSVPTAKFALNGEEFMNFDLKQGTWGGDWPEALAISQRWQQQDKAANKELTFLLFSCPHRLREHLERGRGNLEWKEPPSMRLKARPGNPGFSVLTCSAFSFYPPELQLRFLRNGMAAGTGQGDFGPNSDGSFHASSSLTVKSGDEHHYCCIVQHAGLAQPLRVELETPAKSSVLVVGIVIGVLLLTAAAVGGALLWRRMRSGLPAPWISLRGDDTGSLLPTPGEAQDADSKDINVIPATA

As for “PF-07209960, anti-human PD-1–IL15 mutein fusion protein”, the equilibrium dissociation constant (Kd) (commonly a measure of binding affinity in units of concentration) in the experiment with human FcRn (human) is 1040 nM; in experiment [1], 426 nM.
As to “human IL-2Rβ (from UniProt P14784 27-551) (receptor)”, in experiment [2], the dissociation constant Kd is 4000 nM.
The same measure, in the same setting: as for “monkey IL-2Rβ (from UniProt Q38J85 27-551) (receptor)”, the figure is 2400 nM.
